# Experimental data as given in patent publication US10857209B2, “Lysosomal acid lipase and PPAR gamma ligands as immune therapies for cancer treatment” (Indiana University Research and Technology Corporation, priority 2016, dated 2020).
# T1: PPARγ (Mus musculus, UniProt P37238)
# T1 construct: host or cells: lal-/- mice (lung)
# T1 sequence (P37238 1-505): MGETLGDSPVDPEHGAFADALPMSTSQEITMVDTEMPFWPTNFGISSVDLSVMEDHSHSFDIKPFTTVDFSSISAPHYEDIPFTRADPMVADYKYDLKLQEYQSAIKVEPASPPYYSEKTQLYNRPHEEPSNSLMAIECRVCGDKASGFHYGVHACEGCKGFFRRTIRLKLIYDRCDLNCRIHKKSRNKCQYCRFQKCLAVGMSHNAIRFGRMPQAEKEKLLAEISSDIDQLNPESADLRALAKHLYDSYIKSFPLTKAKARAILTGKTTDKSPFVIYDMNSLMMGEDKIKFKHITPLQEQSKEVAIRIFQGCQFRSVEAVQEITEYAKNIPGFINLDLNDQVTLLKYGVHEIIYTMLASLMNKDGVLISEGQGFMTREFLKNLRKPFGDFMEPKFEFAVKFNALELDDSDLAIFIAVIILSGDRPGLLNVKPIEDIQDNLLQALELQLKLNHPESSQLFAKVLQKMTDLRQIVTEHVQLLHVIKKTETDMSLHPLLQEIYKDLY
# B1: hLAL: human lysosomal acid lipase expressed from a doxycycline-controlled tissue-specific transgene in lal−/− mice; never administered as a protein (protein)
# chain: GPKPVVFLQHGLLADSSNWVTNLANSSLGFILADAGFDVWMGNSRGNTWSRKHKTLSVSQDEFWAFSYDEMAKYDLPASINFILNKTGQEQVYYVGHSQGTTIGFIAFSQIPELAKRIKMFFALGPVASVAFCTSPMAKLGRLPDHLIKDLFGDKEFLPQSAFLKWLGTHVCTHVILKELCGNLCFLLCGFNERNLNMSRVDVYTTHSPAGTSVQNMLHWSQAVKFQKFQAFDWGSSAKNYFHYNQSYPPTYNVKDMLVPTAVWSGGHDWLADVYDVNILLTQITNLVFHESIPEWEHLDFIWGLDAPWRLYNKIINLMRKYQ
# modifications: left off: small tags and cut ends
# notes: human lysosomal acid lipase expressed from a doxycycline-controlled tissue-specific transgene in lal−/− mice; never administered as a protein
# Legend:
# B16 melanoma cells [1] = assay: In vitro co-culture of pre-treated MDSCs and B16 melanoma cells; assay type: cell-based, mouse; conditions: lal−/− Ly6G+ cells pre-treated 20 μmol/L 24 hours; 72 hours co-culture; vs ethanol
# Procedure: Ethanol or 20 μmol/L 9-HODE pre-treated (for 24 hours) MDSCs (5×10^5) and B16 melanoma cells (5×10^3) were mixed, and seeded into a well of 96-well plates in DMEM supplemented with 10% FBS. Seventy-two hours later, unattached MDSCs were removed by washing with PBS, and the number of attached B16 melanoma cells was counted. Morphologically, MDSCs are much smaller than B16 melanoma cells for exclusion.
# PPARγ [2] = target: T1, PPARγ; conditions: previously reported; cited from earlier work
# PPARγ [3] = target: T1, PPARγ; assay: T cell numbers in lal−/− mice (data not shown)
# [4] = tested on: Lewis lung cancer (LLC) cells; assay: In vitro co-culture of pre-treated MDSCs and LLC cells; assay type: cell-based, mouse; conditions: lal−/− Ly6G+ cells pre-treated 20 μmol/L 24 hours; 72 hours co-culture
# [5] = Tissue lipid storage in LAP-Tg/KO mice (hepatocyte-specific hLAL expression); assay type: in vivo, mouse; conditions: hepatocyte transgenic expression in lal−/− mice (doxycycline-untreated LAP-Tg/KO)
# Description: LAP-tTA/(TetO)7-CMV-hLAL; lal^−/− (LAP-Tg/KO) triple mice of the FVB/N background was established by cross-breeding of LAP-tTA transgenic mice (Jackson's Laboratory, Bar Harbor, Me.) with a previously generated (tetO)7-CMV-hLAL transgenic mice into lal^−/− mice. This triple transgenic mouse model was hepatocyte-specific Tet-off expression of wild-type hLAL in lal^−/− mice under the control of the LAP. All scientific protocols that involved the use of animals were approved by the Institutional Animal Care and Use Committee of Indiana University School of Medicine and followed guidelines established by the Panel on Euthanasia of the American Veterinary Medical Association. Animals were housed in a secured animal facility at Indiana University School of Medicine.
# Total tissue lipids were extracted from the liver and small intestine by the Folch method (Folch et al., J Biol. Chem 1957, […]:497-509). Concentrations of CEs and TGs were determined as described in Due et al., J Lipid Res 2001, 42:489-500 and Du et al., J Immunol 2009, 182:1648-1659).
# Frozen tissue sections were prepared from the liver and intestine after a standard cryostat procedure. Tissue section slides were stained with Oil Red-O solution (0.5% in propylene glycol) in a 60° C. oven for 10 minutes and placed in 85% propylene glycol for 1 minute; slides were counter-stained in hematoxylin.
# B16 melanoma cells [6] = assay: B16 melanoma metastasis in CCSP-Tg/KO mice; assay type: in vivo, mouse; conditions: lung epithelial-specific expression in lal−/− mice; 5×10^5 cells i.v., two weeks
# Procedure: For the tumor metastasis model, 5×10^5 B16 melanoma cells in 200 μL PBS were injected into the mice via tail vein. Two weeks after the injection, the mice were sacrificed and the lungs were harvested for examination of metastasis.
# CD4+ T cells = assay: T cell proliferation assay with BALF cells of CCSP-Tg/KO mice; assay type: cell-based, mouse; conditions: BALF cells from doxycycline-treated CCSP-Tg/KO mice; BALF cells:CD4+ T cells 1:5, 4 days
# Procedure: To determine the immunosuppressive effects of BALF cells, BALF was harvested by PBS. After the centrifugation, the resulting cell pellets were collected and used. CD4^+ T cells were prepared and CFSE labeled as we previously described (15). Labeled CD4^+ T cells were co-cultured with BALF cells in 96-well plates pre-coated with anti-CD3 monoclonal antibody (mAb) (2 μg/mL) and anti-CD28 mAb (5 μg/mL) at 37° C., 5% CO2 for 4 days. The ratio of BALF cells:CD4^+ T cells was 1:5. Proliferation of CD4^+ T cells was evaluated as CFSE dilution by FACS.
# cytokines and chemokines = assay: Cytokines and chemokines in plasma (ELISA) and liver (qPCR) of LAP-Tg/KO mice; assay type: in vivo, mouse
# Procedure: Total RNAs were purified from livers or isolated hepatocytes using RNeasy Mini Kits according to the manufacturer's instruction (Qiagen). Quantitative real-time RT-PCR (qPCR) was performed as described in Wu et al., Blood 2012, 119:115-126). Relative gene expression levels were analyzed using the 2^−ΔΔCT method. Primers of mouse IL-6, mouse granulocyte-macrophage colony-stimulating factor (GM-CSF), mouse macrophage colony-stimulating factor, mouse tumor necrosis factor (TNF)-α, mouse IL-2, mouse IL-4, mouse IL-17, mouse interferon (IFN)-γ, mouse monocyte chemotactic protein-1 (MCP-1), mouse chemokine ligand (CCL)-3, mouse CCL4, mouse CCL5, mouse CXCL10, and glyceraldehyde-3-phosphate dehydrogenase for qPCR were described in Qu et al. Cancer Res 2009, 69:7252-7261; Zhao et al., Oncogene 2014, 34:1938-1948.
# The expression levels of IL-6, GM-CSF, MCP-1 (BD Bio-sciences), and CCL5 (R&D Systems, Minneapolis, Minn.) in the plasma and hepatocyte culture medium were measured using enzyme-linked immunosorbent assay (ELISA) kits according to the manufacturer's instructions.
# [7] = doxycycline-untreated LAP-Tg/KO triple mice (hLAL on)
decreased T cell numbers in lal−/− mice (PPARγ [3]),Molecule,proliferation of B16 melanoma cells upon co-culture (B16 melanoma cells [1]),lal−/− pulmonary inflammation and aberrant gene expression (PPARγ [2]),proliferation of LLC cells upon co-culture [4],"lipid storage (cholesterol and triglyceride) in liver, spleen and small intestine [5]",B16 melanoma cell metastasis in the lung (B16 melanoma cells [6]),inhibition of T cell proliferation by BALF cells (CD4+ T cells),liver IL-4 and IL-17 mRNA levels (cytokines and chemokines; [7]),liver mRNA levels of IL-2 and IFN-γ (cytokines and chemokines; [7]),"liver mRNA levels of IL-6, GM-CSF, M-CSF and TNF-α (cytokines and chemokines; [7])","liver mRNA of chemokines MCP-1, CCL3, CCL4, CCL5 and CXCL10 (cytokines and chemokines; [7])","plasma concentrations of IL-6, GM-CSF, MCP-1 and CCL5 (ELISA) (cytokines and chemokines; untreated (hLAL on) vs doxycycline-treated LAP-Tg/KO mice)"
reversed,9-hydroxyoctadecadienoic acid [9-HODE],significantly decreased proliferation of B16 melanoma cells,significantly rescued,reduced proliferation of LLC cells,–,–,–,–,–,–,–,–
–,B1,–,–,–,completely cleaned up,reduced B16 melanoma cell metastasis,reduced inhibition on T cell proliferation,unchanged,reduced mRNA levels,significantly down-regulated,markedly down-regulated,decreased
